Results as given in US7732151B2, “Use of IRS-polypeptides for identifying of pharmaceutically active compounds” (Sanofi-Aventis Deutschland GmbH, priority 2003, dated 2010).

B1: IRS-1: insulin receptor substrate 1 polypeptide used as kinase substrate (protein, listed as Homo sapiens)
chain: MASPPESDGFSDVRKVGYLRKPKSMHKRFFVLRAASEAGGPARLEYYENEKKWRHKSSAPKRSIPLESCFNINKRADSKNKHLVALYTRDEHFAIAADSEAEQDSWYQALLQLHNRAKGHHDGAAALGAGGGGGSCSGSSGLGEAGEDLSYGDVPPGPAFKEVWQVILKPKGLGQTKNLIGIYRLCLTSKTISFVKLNSEAAAVVLQLMNIRRCGHSENFFFIEVGRSAVTGPGEFWMQVDDSVVAQNMHETILEAMRAMSDEFRPRSKSQSSSNCSNPISVPLRRHHLNNPPPSQVGLTRRSRTESITATSPASMVGGKPGSFRVRASSDGEGTMSRPASVDGSPVSPSTNRTHAHRHRGSARLHPPLNHSRSIPMPASRCSPSATSPVSLSSSSTSGHGSTSDCLFPRRSSASVSGSPSDGGFISSDEYGSSPCDFRSSFRSVTPDSLGHTPPARGEEELSNYICMGGKGPSTLTAPNGHYILSRGGNGHRCTPGTGLGTSPALAGDEAASAADLDNRFRKRTHSAGTSPTITHQKTPSQSSVASIEEYTEMMPAYPPGGGSGGRLPGHRHSAFVPTRSYPEEGLEMHPLERRGGHHRPDSSTLHTDDGYMPMSPGVAPVPSGRKGSGDYMPMSPKSVSAPQQIINPIRRHPQRVDPNGYMMMSPSGGCSPDIGGGPSSSSSSSNAVPSGTSYGKLWTNGVGGHHSHVLPHPKPPVESSGGKLLPCTGDYMNMSPVGDSNTSSPSDCYYGPEDPQHKPVLSYYSLPRSFKHTQRPGEPEEGARHQHLRLSTSSGRLLYAATADDSSSSTSSDSLGGGYCGARLEPSLPHPHHQVLQPHLPRKVDTAAQTNSRLARPTRLSLGDPKASTLPRAREQQQQQQPLLHPPEPKSPGEYVNIEFGSDQSGYLSGPVAFHSSPSVRCPSQLQPAPREEETGTEEYMKMDLGPGRRAAWQESTGVEMGRLGPAPPGAASICRPTRAVPSSRGDYMTMQMSCPRQSYVDTSPAAPVSYADMRTGIAAEEVSLPRATMAAASSSSAASASPTGPQGAAELAAHSSLLGGPQGPGGMSAFTRVNLSPNRNQSAKVIRADPQGCRRRHSSETFSSTPSATRVGNTVPFGAGAAVGGGGGSSSSSEDVKRHSSASFENVWLRPGELGGAPKEPAKLCGAAGGLENGLNYIDLDLVKDFKQCPQECTPEPQPPPPPPPHQPLGSGESSSTRRSSEDLSAYASISFQKQPEDRQ

Legend:
[1] = biological target: T1, rat liver insulin receptor (WGA-IR) (Rattus norvegicus, UniProt P15127); assay: ALPHAScreen: phosphorylation of biotinylated IRS-1 fragment by wheat germ lectin affinity-purified rat liver insulin receptor; assay type: biochemical; conditions: 85 nM biotinylated IRS fragment, 50 μM ATP, 30° C. for 30 minutes, p-Tyr antibody detection, FIG. 4
T1 construct: tissue Sigma (named as alternative source) 70543; host or cells: rat liver
From the text: The measurement of the kinase activity using ALPHAScreen™ from Perkin-Elmer Life Sciences, which is particularly expedient for the purposes of the present invention, takes place for example by the kinase to be investigated phosphorylating a biotinylated peptide in a biochemical mixture in the presence of ATP. The phosphorylated peptide is then bound by a specific anti-phospho antibody to which protein A-conjugated acceptor beads or provided with suitable second antibodies are coupled. The same mixture contains streptavidin-coupled donor beads which bind the biotin portion of the peptide. The binding to the peptide brings acceptor beads and donor beads in direct vicinity, starting a cascade of chemical reactions which generate a highly amplified, detectable luminescence signal: a photosensitizer in the donor bead is excited by laser excitation to convert oxygen in the surroundings into a singlet status. The singlet oxygen then diffuses to the acceptor bead where it excites a thioxene derivative which thus emits a chemiluminescence with a wavelength of 370 nm, which in turn excites further fluorophores in the acceptor bead to luminesce light with wavelengths of 520 to 620 nm. Since excitation of the fluorophores by singlet oxygen takes place only when donor bead and acceptor bead are in close vicinity, only then are detectable signals generated. […]

[2] = kinetic constant as enzyme substrate; cited from earlier work

T1 sequence (P15127 27-759 limits assumed): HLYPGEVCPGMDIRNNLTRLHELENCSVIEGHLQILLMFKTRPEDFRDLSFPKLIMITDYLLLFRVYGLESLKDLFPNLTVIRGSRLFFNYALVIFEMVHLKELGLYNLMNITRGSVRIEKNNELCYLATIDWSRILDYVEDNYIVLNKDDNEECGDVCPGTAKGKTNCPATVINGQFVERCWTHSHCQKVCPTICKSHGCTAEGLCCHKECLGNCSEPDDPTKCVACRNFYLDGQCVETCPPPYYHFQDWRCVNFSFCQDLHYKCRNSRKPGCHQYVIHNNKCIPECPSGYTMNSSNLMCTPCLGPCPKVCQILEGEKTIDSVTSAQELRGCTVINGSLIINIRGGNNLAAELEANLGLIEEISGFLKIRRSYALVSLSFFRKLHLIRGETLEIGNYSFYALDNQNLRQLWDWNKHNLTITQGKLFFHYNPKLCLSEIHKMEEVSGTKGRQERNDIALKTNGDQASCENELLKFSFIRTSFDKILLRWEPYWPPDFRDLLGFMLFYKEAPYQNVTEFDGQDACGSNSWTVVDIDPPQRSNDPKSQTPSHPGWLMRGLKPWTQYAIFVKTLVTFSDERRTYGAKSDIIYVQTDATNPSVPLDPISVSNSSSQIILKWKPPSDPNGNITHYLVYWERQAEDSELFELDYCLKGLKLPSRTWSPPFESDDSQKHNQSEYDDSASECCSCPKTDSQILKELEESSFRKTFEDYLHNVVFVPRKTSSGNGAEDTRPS
T1 sequence (P15127 764-1383 partner limits assumed): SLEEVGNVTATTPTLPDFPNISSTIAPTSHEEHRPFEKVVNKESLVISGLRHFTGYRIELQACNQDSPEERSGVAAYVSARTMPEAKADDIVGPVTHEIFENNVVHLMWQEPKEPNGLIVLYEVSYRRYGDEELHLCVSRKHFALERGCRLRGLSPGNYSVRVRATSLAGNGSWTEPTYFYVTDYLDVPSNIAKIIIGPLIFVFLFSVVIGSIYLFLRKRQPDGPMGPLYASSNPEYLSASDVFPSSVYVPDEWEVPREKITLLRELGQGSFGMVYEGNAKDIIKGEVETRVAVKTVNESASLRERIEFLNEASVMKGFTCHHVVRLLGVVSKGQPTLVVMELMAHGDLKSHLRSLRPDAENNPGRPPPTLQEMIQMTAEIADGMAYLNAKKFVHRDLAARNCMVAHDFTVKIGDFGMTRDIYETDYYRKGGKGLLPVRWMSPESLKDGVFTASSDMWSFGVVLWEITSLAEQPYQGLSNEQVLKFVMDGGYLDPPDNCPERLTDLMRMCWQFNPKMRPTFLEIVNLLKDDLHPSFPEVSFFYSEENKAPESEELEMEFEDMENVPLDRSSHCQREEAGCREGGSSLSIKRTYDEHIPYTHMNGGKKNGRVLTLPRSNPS

| Molecule | EC50 [1] [nM] | Km [2] [µM] |
| --- | --- | --- |
| insulin: human insulin, peptide hormone, commercially available from Sigma under order number I-9266 | 10 |  |
| B1 |  | 19 |
